Bridge positions count the residues as written; N and C are the ends. Ends that are not written are not given here.
B1: FLAG-tagged mouse resistin produced in HEK293 cells (Enzo Life Sciences) (ligand, UniProt Q99P87 21-114, looked up)
chain: SSMPLCPIDEAIDKKIKQDFNSLFPNAIKNIGLNCWTVSSRGKLASCPEGTAVLSCSCGSACGSWDIREEKVCHCQCARIDWTAARCCKLQVAS
notes: Bought protein; also called FLAG-resistin; ADSF; not shown: FLAG tag
B2: WAT7 peptide, cysteine-cyclized synthetic (CSWKYWFGEC) (peptide)
peptide: CSWKYWFGEC
modifications: disulfide 1-10
notes: Chemically synthesized (Genemed Synthesis); also called cyclic WAT7

Experiments:
bovine serum albumin [1] = molecular target: T1, bovine serum albumin (bovine, UniProt P02769 25-607); assay: ELISA, BSA coated as background control (FIG. 6D)
T1 construct: Background control in ELISA; also called BSA
T1 sequence (P02769 25-607 limits assumed): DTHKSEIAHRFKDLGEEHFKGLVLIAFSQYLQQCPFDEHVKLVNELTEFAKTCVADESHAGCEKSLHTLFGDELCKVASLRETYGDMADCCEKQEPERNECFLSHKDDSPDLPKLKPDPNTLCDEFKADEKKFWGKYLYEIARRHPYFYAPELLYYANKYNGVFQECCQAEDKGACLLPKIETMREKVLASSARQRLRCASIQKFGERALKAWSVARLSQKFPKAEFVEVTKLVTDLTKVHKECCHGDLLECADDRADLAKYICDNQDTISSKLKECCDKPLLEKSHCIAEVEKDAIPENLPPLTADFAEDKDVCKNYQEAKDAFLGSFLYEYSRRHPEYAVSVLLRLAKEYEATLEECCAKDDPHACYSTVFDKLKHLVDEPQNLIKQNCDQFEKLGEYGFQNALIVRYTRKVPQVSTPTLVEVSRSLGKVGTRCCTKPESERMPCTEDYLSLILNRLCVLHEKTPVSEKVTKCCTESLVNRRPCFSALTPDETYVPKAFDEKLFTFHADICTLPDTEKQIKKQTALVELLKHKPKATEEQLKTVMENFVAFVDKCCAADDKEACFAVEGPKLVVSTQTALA
Text: (§1) Signal was detected by Odyssey imaging system using anti-goat IRDye 800CW or anti-rabbit IRDye 680 both from Licor Biosciences. Bovine DCN was from Sigma-Aldrich, NS0-derived murine DCN was from R&D Systems. Murine DCN cDNA was generated from WAT total RNA using SuperScript kit (Invitrogen). For bacterial expression, full-length mouse core DCN and ΔDCN isoforms were produced by cloning fragments encoding amino acids 1-354 and 45-354 of mouse DCN cDNA (OriGene) or of CLIC4 cDNA (OriGene) in-frame with the His₆Tag into pET28a vector, respectively. His₆-tagged proteins were purified with His-Tag kit (Novagen). For ELISA binding assays, 100 μl of 10 μg/ml of indicated His₆-DCN preparations, His₆-CLIC4 (control His₆-protein), NS0 cell-expressed mouse DCN (R&D Systems), purified bovine DCN (Sigma-Aldrich), or BSA were coated and immobilized onto Maxisorb Immunoplates (96 well; NUNC) overnight at 4° C., followed by blocking with 3% BSA, and then incubating with 100 μl of indicated concentrations of WAT7 or control WAT2 peptides. […] Bound peptides or FLAG-resistin were probed with corresponding rabbit anti-peptide Genemed antibodies (1:2,000) or rabbit anti-FLAG antibodies (Sigma-Aldrich, 1:2,000) followed by secondary goat anti-rabbit HRP-conjugated antibodies (Millipore, 1:5,000) and signal detection with Ultra-TMB (Pierce) substrate and measurement of absorbance at 450 nm. […]

[2] = molecular target: T2, recombinant bacterially-purified mouse ΔDCN (His6-tagged, amino acids 45-354 of mouse DCN) (mouse, UniProt P28654 45-354); assay: ELISA, DCN forms coated, FLAG-resistin detected with anti-FLAG (FIG. 6D); reference: full-length DCN (mDCN)
T2 construct: Expressed in bacteria, so not glycosylated; also called delta-DCN; His6-ΔDCN
T2 sequence: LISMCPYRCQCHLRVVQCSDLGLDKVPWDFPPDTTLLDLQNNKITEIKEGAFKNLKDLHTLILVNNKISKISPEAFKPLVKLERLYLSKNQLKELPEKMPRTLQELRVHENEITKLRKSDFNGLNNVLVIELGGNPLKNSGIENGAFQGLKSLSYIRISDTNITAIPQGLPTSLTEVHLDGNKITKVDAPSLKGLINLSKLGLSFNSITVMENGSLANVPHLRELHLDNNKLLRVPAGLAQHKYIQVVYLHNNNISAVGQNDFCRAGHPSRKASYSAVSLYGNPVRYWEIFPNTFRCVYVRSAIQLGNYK
Procedure: For bacterial expression, full-length mouse core DCN and ΔDCN isoforms were produced by cloning fragments encoding amino acids 1-354 and 45-354 of mouse DCN cDNA (OriGene) or of CLIC4 cDNA (OriGene) in-frame with the His₆Tag into pET28a vector, respectively. His₆-tagged proteins were purified with His-Tag kit (Novagen). For ELISA binding assays, 100 μl of 10 μg/ml of indicated His₆-DCN preparations, His₆-CLIC4 (control His₆-protein), NS0 cell-expressed mouse DCN (R&D Systems), purified bovine DCN (Sigma-Aldrich), or BSA were coated and immobilized onto Maxisorb Immunoplates (96 well; NUNC) overnight at 4° C., followed by blocking with 3% BSA, and then incubating with 100 μl of indicated concentrations of WAT7 or control WAT2 peptides. For adipokines binding assay, FLAG-tagged mouse resistin produced in HEK293 cells (Enzo Life Sciences), or control FLAG-BAP protein (Sigma-Aldrich) were incubated at the concentrations indicated. Bound peptides or FLAG-resistin were probed with corresponding rabbit anti-peptide Genemed antibodies (1:2,000) or rabbit anti-FLAG antibodies (Sigma-Aldrich, 1:2,000) followed by secondary goat anti-rabbit HRP-conjugated antibodies (Millipore, 1:5,000) and signal detection with Ultra-TMB (Pierce) substrate and measurement of absorbance at 450 nm. […]

[3] = molecular target: T3, glycosylated bovine DCN (purified, Sigma-Aldrich) (bovine, UniProt P21793 31-360, glycosylated (GAG chain)); assay: ELISA, protein coated, FLAG-resistin detected with anti-FLAG (FIG. 6D)
T3 construct: also called bDCN*
T3 sequence (P21793 31-360 limits assumed): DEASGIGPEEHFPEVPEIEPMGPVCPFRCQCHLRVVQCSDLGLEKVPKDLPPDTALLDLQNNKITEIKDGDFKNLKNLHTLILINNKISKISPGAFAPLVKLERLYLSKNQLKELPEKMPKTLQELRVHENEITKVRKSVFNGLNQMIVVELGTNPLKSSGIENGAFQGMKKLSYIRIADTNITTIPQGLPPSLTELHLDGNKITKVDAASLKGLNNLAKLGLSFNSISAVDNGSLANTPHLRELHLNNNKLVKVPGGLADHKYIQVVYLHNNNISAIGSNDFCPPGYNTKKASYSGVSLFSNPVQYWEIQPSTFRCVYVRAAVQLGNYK
Text: as §1

[4] = molecular target: T3, glycosylated bovine DCN (purified, …); assay: ELISA, protein coated (FIG. 16B)
Text: as §1, with “Bovine” for “Signal was detected by Odyssey imaging system using anti-goat IRDye 800CW or anti-rabbit IRDye 680 both from Licor Biosciences. Bovine”

bovine serum albumin [5] = molecular target: T1, bovine serum albumin; assay: ELISA, BSA coated as background control
Text: as §1

| Binder | binding result (bovine serum albumin [1]) | fold lower molar concentration for binding than to full-length DCN [2] | binding result [3] | binding result [4] | binding result (bovine serum albumin [5]) |
| --- | --- | --- | --- | --- | --- |
| B1 | no binding | 100 fold | no binding |  |  |
| B2 |  |  |  | no binding | no binding |
